This is an account of results in patent publication US20220089695A1 (NEW YORK UNIVERSITY, published 2022).

The term EC50 (read off the curve) denotes the concentration that produces a half-maximal response.

The target of assay [1] is T1, Fc-tagged SARS-CoV-2 S N-terminal domain (SARS-CoV-2; human, UniProt P0DTC2 14-305).
T1 construct: domain: NTD
Briefly: Fc-tagged S domain on receptor-transfected HEK293T cells, CDS imaging.

Assay [2] concerns the target Human IgG1 Fc-tagged SARS-CoV-2 Spike (S) recombinant protein (SARS-CoV-2; human, UniProt P0DTC2 16-1213). Briefly: Fc-tagged protein on receptor-transfected HEK293T cells, CDS imaging.
The target of assay [3] is SARS-CoV-2 S protein displayed on lentiviral (HIV-GFP) pseudovirus (SARS-CoV-2, UniProt P0DTC2 14-1273). The assay is described as follows: pseudovirus on transfected HEK293T cells on ice, anti-S staining, flow cytometry. For orientation: A flow cytometer gives signals particle by particle.
In assay [4] the target is T2, Fc-tagged SARS-CoV-2 S2 subunit (SARS-CoV-2; human, UniProt P0DTC2 686-1213).
T2 construct: domain: S2
The assay is described as follows: CDS imaging on HEK293T cells expressing DC-SIGN, anti-human Fc detection.

The target of assay [5] is T3, Human IgG1 Fc-tagged SARS-CoV-2 S receptor-binding domain (SARS-CoV-2; human, UniProt P0DTC2 319-541).
T3 construct: domain: RBD
Briefly: Fc-tagged protein on receptor-expressing HEK293T cells (FIG. 13B).

The target of assay [6] is Recombinant SARS-CoV-2-S1 protein with His tag (SARS-CoV-2, UniProt P0DTC2 16-685).
For assay [7], the target named is T2, Fc-tagged SARS-CoV-2 S2 subunit. Briefly: CDS imaging on HEK293T cells expressing L-SIGN, anti-human Fc detection.
The target is the same in assay [8]. Briefly: CDS imaging on HEK293T cells expressing LSECtin, anti-human Fc detection.

B1: Asialoglycoprotein Receptor 1 expressed on cells (receptor)
chain: MTKEYQDLQHLDNEESDHHQLRKGPPPPQPLLQRLCSGPRLLLLSLGLSLLLLVVVCVIGSQNSQLQEELRGLRETFSNFTASTEAQVKGLSTQGGNVGRKMKSLESQLEKQQKDLSEDHSSLLLHVKQFVSDLRSLSCQMAALQGNGSERTCCPVNWVEHERSCYWFSRSGKAWADADNYCRLEDAHLVVVTSWEEQKFVQHHIGPVNTWMGLHDQNGPWKWVDGTDYETGFKNWRPEQPDDWYGHGLGGGEDCAHFTDDGRWNDDVCQRPYRWVCETELDKASQEPPLL
notes: whole, on cells; also called ASGR1
Turning to B1, the binding result in assay [1], in assay [2] and in assay [3] was “binds” each time.

B2: Dendritic cell-specific intercellular adhesion molecule-3-grabbing nonintegrin expressed on cells (receptor)
chain: MSDSKEPRLQQLGLLEEEQLRGLGFRQTRGYKSLAGCLGHGPLVLQLLSFTLLAGLLVQVSKVPSSISQEQSRQDAIYQNLTQLKAAVGELSEKSKLQEIYQELTQLKAAVGELPEKSKLQEIYQELTRLKAAVGELPEKSKLQEIYQELTWLKAAVGELPEKSKMQEIYQELTRLKAAVGELPEKSKQQEIYQELTRLKAAVGELPEKSKQQEIYQELTRLKAAVGELPEKSKQQEIYQELTQLKAAVERLCHPCPWEWTFFQGNCYFMSNSQRNWHDSITACKEVGAQLVVIKSAEEQNFLQLQSSRSNRFTWMGLSDLNQEGTWQWVDGSPLLPSFKQYWNRGEPNNVGEEDCAEFSGNGWNDDKCNLAKFWICKKSAASCSRDEEQFLSPAPATPNPPPA
notes: whole, on cells; also called DC-SIGN; CD209
As for B2, in assay [4], the binding result is on record as “binds”.

B3: Tweety Family Member 2 expressed on cells (receptor)
chain: MQAARVDYIAPWWVVWLHSVPHVGLRLQPVNSTFSPGDESYQESLLFLGLVAAVCLGLNLIFLVAYLVCACHCRRDDAVQTKQHHSCCITWTAVVAGLICCAAVGVGFYGNSETNDGAYQLMYSLDDANHTFSGIDALVSGTTQKMKVDLEQHLARLSEIFAARGDYLQTLKFIQQMAGSVVVQLSGLPVWREVTMELTKLSDQTGYVEYYRWLSYLLLFILDLVICLIACLGLAKRSKCLLASMLCCGALSLLLSWASLAADGSAAVATSDFCVAPDTFILNVTEGQISTEVTRYYLYCSQSGSSPFQQTLTTFQRALTTMQIQVAGLLQFAVPLFSTAEEDLLAIQLLLNSSESSLHQLTAMVDCRGLHKDYLDALAGICYDGLQGLLYLGLFSFLAALAFSTMICAGPRAWKHFTTRNRDYDDIDDDDPFNPQAWRMAAHSPPRGQLHSFCSYSSGLGSQTSLQPPAQTISNAPVSEYMNQAMLFGRNPRYENVPLIGRASPPPTYSPSMRATYLSVADEHLRHYGNQFPA
notes: whole, on cells; also called TTYH2; TTHY2
As for B3, the binding result in assay [5] is on record as “binds”.

B4: Recombinant DC-SIGN (CD209) with human Fc tag (Fc fusion)
chain: QVSKVPSSISQEQSRQDAIYQNLTQLKAAVGELSEKSKLQEIYQELTQLKAAVGELPEKSKLQEIYQELTRLKAAVGELPEKSKLQEIYQELTWLKAAVGELPEKSKMQEIYQELTRLKAAVGELPEKSKQQEIYQELTRLKAAVGELPEKSKQQEIYQELTRLKAAVGELPEKSKQQEIYQELTQLKAAVERLCHPCPWEWTFFQGNCYFMSNSQRNWHDSITACKEVGAQLVVIKSAEEQNFLQLQSSRSNRFTWMGLSDLNQEGTWQWVDGSPLLPSFKQYWNRGEPNNVGEEDCAEFSGNGWNDDKCNLAKFWICKKSAASCSRDEEQFLSPAPATPNPPPA
Turning to B4, the “EC50 (read off the curve)” value in assay [6] was around 0.8 µg/mL.

B5: Liver/lymph node-specific intercellular adhesion molecule-3-grabbing integrin expressed on cells (receptor)
chain: MSDSKEPRVQQLGLLEEDPTTSGIRLFPRDFQFQQIHGHKSSTGCLGHGALVLQLLSFMLLAGVLVAILVQVSKVPSSLSQEQSEQDAIYQNLTQLKAAVGELSEKSKLQEIYQELTQLKAAVGELPEKSKLQEIYQELTRLKAAVGELPEKSKLQEIYQELTRLKAAVGELPEKSKLQEIYQELTRLKAAVGELPEKSKLQEIYQELTELKAAVGELPEKSKLQEIYQELTQLKAAVGELPDQSKQQQIYQELTDLKTAFERLCRHCPKDWTFFQGNCYFMSNSQRNWHDSVTACQEVRAQLVVIKTAEEQNFLQLQTSRSNRFSWMGLSDLNQEGTWQWVDGSPLSPSFQRYWNSGEPNNSGNEDCAEFSGSGWNDNRCDVDNYWICKKPAACFRDE
notes: whole, on cells; also called L-SIGN; CLEC4M
As to B5, in assay [7], the binding result is reported as “binds”.

B6: C-type lectin domain family 10 member A expressed on cells (receptor)
chain: MTRTYENFQYLENKVKVQGFKNGPLPLQSLLQRLCSGPCHLLLSLGLGLLLLVIICVVGFQNSKFQRDLVTLRTDFSNFTSNTVAEIQALTSQGSSLEETIASLKAEVEGFKQERQAGVSELQEHTTQKAHLGHCPHCPSVCVPVHSEMLLRVQQLVQDLKKLTCQVATLNNNASTEGTCCPVNWVEHQDSCYWFSHSGMSWAEAEKYCQLKNAHLVVINSREEQNFVQKYLGSAYTWMGLSDPEGAWKWVDGTDYATGFQNWKPGQPDDWQGHGLGGGEDCAHFHPDGRWNDDVCQRPYHWVCEAGLGQTSQESH
notes: whole, on cells; also called CLEC10A
On to B6, for which the binding result in assay [2] and in assay [3] was “binds” each time.

B7: Liver and lymph node sinusoidal endothelial cell C-type lectin expressed on cells (receptor)
chain: MDTTRYSKWGGSSEEVPGGPWGRWVHWSRRPLFLALAVLVTTVLWAVILSILLSKASTERAALLDGHDLLRTNASKQTAALGALKEEVGDCHSCCSGTQAQLQTTRAELGEAQAKLMEQESALRELRERVTQGLAEAGRGREDVRTELFRALEAVRLQNNSCEPCPTSWLSFEGSCYFFSVPKTTWAAAQDHCADASAHLVIVGGLDEQGFLTRNTRGRGYWLGLRAVRHLGKVQGYQWVDGVSLSFSHWNQGEPNDAWGRENCVMMLHTGLWNDAPCDSEKDGWICEKRHNC
notes: whole, on cells; also called LSECtin; CLEC4G
With B7, the binding result in assay [8] is given as “binds”.
